In article PMC11446282:

Tested on: PP2A-B55α
Assay: Single alanine mutational scan, YFP-tagged interactors immunoprecipitated from HeLa cells, Western blot
Format: binding, human
Settings: single alanine mutant of YFP-tagged AMOTL2

Molecule | Experimental % binding [%]
AMOTL2 R14: AMOTL2, R14 to alanine (protein, UniProt Q9Y2J4 1-779, looked up, variant R14A) Angiomotin-like protein 2: MRTLEDSSGTVLHALIQEQLRYGNLTETRTLLAIQQQALRGGAGTGGTGSPQASLEILAPEDSQVLQQATRQEPQGQEHQGGENHLAENTLYRLCPQPSKGEELPTYEEAKAHSQYYAAQQAGTRPHAGDRDPRGAPGGSRRQDEALRELRHGHVRSLSERLLQLSLERNGARAPSHMSSSHSFPQLARNQQGPPLRGPPAEGPESRGPPPQYPHVVLAHETTTAVTDPRYRARGSPHFQHAEVRILQAQVPPVFLQQQQQYQYLQQSQEHPPPPHPAALGHGPLSSLSPPAVEGPVSAQASSATSGSAHLAQMEAVLRENARLQRDNERLQRELESSAEKAGRIEKLESEIQRLSEAHESLTRASSKREALEKTMRNKMDSEMRRLQDFNRDLRERLESANRRLASKTQEAQAGSQDMVAKLLAQSYEQQQEQEKLEREMALLRGAIEDQRRRAELLEQALGNAQGRAARAEEELRKKQAYVEKVERLQQALGQLQAACEKREQLELRLRTRLEQELKALRAQQRQAGAPGGSSGSGGSPELSALRLSEQLREKEEQILALEADMTKWEQKYLEERAMRQFAMDAAATAAAQRDTTLIRHSPQPSPSSSFNEGLLTGGHRHQEMESRLKVLHAQILEKDAVIKVLQQRSRRDPGKAIQGSLRPAKSVPSVFAAAAAGTQGWQGLSSSERQTADAPARLTTDRAPTEEPVVTAPPAAHAKHGSRDGSTQTEGPPDSTSTCLPPEPDSLLGCSSSQRAASLDSVATSRVQDLSDMVEILI | 15
AMOTL2 I16: AMOTL2, I16 to alanine (protein, UniProt Q9Y2J4 1-779, looked up, variant I16A) Angiomotin-like protein 2: MRTLEDSSGTVLHRLAQEQLRYGNLTETRTLLAIQQQALRGGAGTGGTGSPQASLEILAPEDSQVLQQATRQEPQGQEHQGGENHLAENTLYRLCPQPSKGEELPTYEEAKAHSQYYAAQQAGTRPHAGDRDPRGAPGGSRRQDEALRELRHGHVRSLSERLLQLSLERNGARAPSHMSSSHSFPQLARNQQGPPLRGPPAEGPESRGPPPQYPHVVLAHETTTAVTDPRYRARGSPHFQHAEVRILQAQVPPVFLQQQQQYQYLQQSQEHPPPPHPAALGHGPLSSLSPPAVEGPVSAQASSATSGSAHLAQMEAVLRENARLQRDNERLQRELESSAEKAGRIEKLESEIQRLSEAHESLTRASSKREALEKTMRNKMDSEMRRLQDFNRDLRERLESANRRLASKTQEAQAGSQDMVAKLLAQSYEQQQEQEKLEREMALLRGAIEDQRRRAELLEQALGNAQGRAARAEEELRKKQAYVEKVERLQQALGQLQAACEKREQLELRLRTRLEQELKALRAQQRQAGAPGGSSGSGGSPELSALRLSEQLREKEEQILALEADMTKWEQKYLEERAMRQFAMDAAATAAAQRDTTLIRHSPQPSPSSSFNEGLLTGGHRHQEMESRLKVLHAQILEKDAVIKVLQQRSRRDPGKAIQGSLRPAKSVPSVFAAAAAGTQGWQGLSSSERQTADAPARLTTDRAPTEEPVVTAPPAAHAKHGSRDGSTQTEGPPDSTSTCLPPEPDSLLGCSSSQRAASLDSVATSRVQDLSDMVEILI | 32
AMOTL2 Q17: AMOTL2, Q17 to alanine (protein, UniProt Q9Y2J4 1-779, looked up, variant Q17A) Angiomotin-like protein 2: MRTLEDSSGTVLHRLIAEQLRYGNLTETRTLLAIQQQALRGGAGTGGTGSPQASLEILAPEDSQVLQQATRQEPQGQEHQGGENHLAENTLYRLCPQPSKGEELPTYEEAKAHSQYYAAQQAGTRPHAGDRDPRGAPGGSRRQDEALRELRHGHVRSLSERLLQLSLERNGARAPSHMSSSHSFPQLARNQQGPPLRGPPAEGPESRGPPPQYPHVVLAHETTTAVTDPRYRARGSPHFQHAEVRILQAQVPPVFLQQQQQYQYLQQSQEHPPPPHPAALGHGPLSSLSPPAVEGPVSAQASSATSGSAHLAQMEAVLRENARLQRDNERLQRELESSAEKAGRIEKLESEIQRLSEAHESLTRASSKREALEKTMRNKMDSEMRRLQDFNRDLRERLESANRRLASKTQEAQAGSQDMVAKLLAQSYEQQQEQEKLEREMALLRGAIEDQRRRAELLEQALGNAQGRAARAEEELRKKQAYVEKVERLQQALGQLQAACEKREQLELRLRTRLEQELKALRAQQRQAGAPGGSSGSGGSPELSALRLSEQLREKEEQILALEADMTKWEQKYLEERAMRQFAMDAAATAAAQRDTTLIRHSPQPSPSSSFNEGLLTGGHRHQEMESRLKVLHAQILEKDAVIKVLQQRSRRDPGKAIQGSLRPAKSVPSVFAAAAAGTQGWQGLSSSERQTADAPARLTTDRAPTEEPVVTAPPAAHAKHGSRDGSTQTEGPPDSTSTCLPPEPDSLLGCSSSQRAASLDSVATSRVQDLSDMVEILI | 143
AMOTL2 E18: AMOTL2, E18 to alanine (protein, UniProt Q9Y2J4 1-779, looked up, variant E18A) Angiomotin-like protein 2: MRTLEDSSGTVLHRLIQAQLRYGNLTETRTLLAIQQQALRGGAGTGGTGSPQASLEILAPEDSQVLQQATRQEPQGQEHQGGENHLAENTLYRLCPQPSKGEELPTYEEAKAHSQYYAAQQAGTRPHAGDRDPRGAPGGSRRQDEALRELRHGHVRSLSERLLQLSLERNGARAPSHMSSSHSFPQLARNQQGPPLRGPPAEGPESRGPPPQYPHVVLAHETTTAVTDPRYRARGSPHFQHAEVRILQAQVPPVFLQQQQQYQYLQQSQEHPPPPHPAALGHGPLSSLSPPAVEGPVSAQASSATSGSAHLAQMEAVLRENARLQRDNERLQRELESSAEKAGRIEKLESEIQRLSEAHESLTRASSKREALEKTMRNKMDSEMRRLQDFNRDLRERLESANRRLASKTQEAQAGSQDMVAKLLAQSYEQQQEQEKLEREMALLRGAIEDQRRRAELLEQALGNAQGRAARAEEELRKKQAYVEKVERLQQALGQLQAACEKREQLELRLRTRLEQELKALRAQQRQAGAPGGSSGSGGSPELSALRLSEQLREKEEQILALEADMTKWEQKYLEERAMRQFAMDAAATAAAQRDTTLIRHSPQPSPSSSFNEGLLTGGHRHQEMESRLKVLHAQILEKDAVIKVLQQRSRRDPGKAIQGSLRPAKSVPSVFAAAAAGTQGWQGLSSSERQTADAPARLTTDRAPTEEPVVTAPPAAHAKHGSRDGSTQTEGPPDSTSTCLPPEPDSLLGCSSSQRAASLDSVATSRVQDLSDMVEILI | 133
AMOTL2 L15: AMOTL2, L15 to alanine (protein, UniProt Q9Y2J4 1-779, looked up, variant L15A) Angiomotin-like protein 2: MRTLEDSSGTVLHRAIQEQLRYGNLTETRTLLAIQQQALRGGAGTGGTGSPQASLEILAPEDSQVLQQATRQEPQGQEHQGGENHLAENTLYRLCPQPSKGEELPTYEEAKAHSQYYAAQQAGTRPHAGDRDPRGAPGGSRRQDEALRELRHGHVRSLSERLLQLSLERNGARAPSHMSSSHSFPQLARNQQGPPLRGPPAEGPESRGPPPQYPHVVLAHETTTAVTDPRYRARGSPHFQHAEVRILQAQVPPVFLQQQQQYQYLQQSQEHPPPPHPAALGHGPLSSLSPPAVEGPVSAQASSATSGSAHLAQMEAVLRENARLQRDNERLQRELESSAEKAGRIEKLESEIQRLSEAHESLTRASSKREALEKTMRNKMDSEMRRLQDFNRDLRERLESANRRLASKTQEAQAGSQDMVAKLLAQSYEQQQEQEKLEREMALLRGAIEDQRRRAELLEQALGNAQGRAARAEEELRKKQAYVEKVERLQQALGQLQAACEKREQLELRLRTRLEQELKALRAQQRQAGAPGGSSGSGGSPELSALRLSEQLREKEEQILALEADMTKWEQKYLEERAMRQFAMDAAATAAAQRDTTLIRHSPQPSPSSSFNEGLLTGGHRHQEMESRLKVLHAQILEKDAVIKVLQQRSRRDPGKAIQGSLRPAKSVPSVFAAAAAGTQGWQGLSSSERQTADAPARLTTDRAPTEEPVVTAPPAAHAKHGSRDGSTQTEGPPDSTSTCLPPEPDSLLGCSSSQRAASLDSVATSRVQDLSDMVEILI | 32
AMOTL2 Q19: AMOTL2, Q19 to alanine (protein, UniProt Q9Y2J4 1-779, looked up, variant Q19A) Angiomotin-like protein 2: MRTLEDSSGTVLHRLIQEALRYGNLTETRTLLAIQQQALRGGAGTGGTGSPQASLEILAPEDSQVLQQATRQEPQGQEHQGGENHLAENTLYRLCPQPSKGEELPTYEEAKAHSQYYAAQQAGTRPHAGDRDPRGAPGGSRRQDEALRELRHGHVRSLSERLLQLSLERNGARAPSHMSSSHSFPQLARNQQGPPLRGPPAEGPESRGPPPQYPHVVLAHETTTAVTDPRYRARGSPHFQHAEVRILQAQVPPVFLQQQQQYQYLQQSQEHPPPPHPAALGHGPLSSLSPPAVEGPVSAQASSATSGSAHLAQMEAVLRENARLQRDNERLQRELESSAEKAGRIEKLESEIQRLSEAHESLTRASSKREALEKTMRNKMDSEMRRLQDFNRDLRERLESANRRLASKTQEAQAGSQDMVAKLLAQSYEQQQEQEKLEREMALLRGAIEDQRRRAELLEQALGNAQGRAARAEEELRKKQAYVEKVERLQQALGQLQAACEKREQLELRLRTRLEQELKALRAQQRQAGAPGGSSGSGGSPELSALRLSEQLREKEEQILALEADMTKWEQKYLEERAMRQFAMDAAATAAAQRDTTLIRHSPQPSPSSSFNEGLLTGGHRHQEMESRLKVLHAQILEKDAVIKVLQQRSRRDPGKAIQGSLRPAKSVPSVFAAAAAGTQGWQGLSSSERQTADAPARLTTDRAPTEEPVVTAPPAAHAKHGSRDGSTQTEGPPDSTSTCLPPEPDSLLGCSSSQRAASLDSVATSRVQDLSDMVEILI | 120

Same assay, conditions: single alanine mutant of YFP-tagged CDCA4

Molecule | Experimental % binding [%]
CDCA4 T65: CDCA4, T65 to alanine (protein, UniProt Q9BXL8 1-241, looked up, variant T65A) Cell division …: MFARGLKRKCVGHEEDVEGALAGLKTVSSYSLQRQSLLDMSLVKLQLCHMLVEPNLCRSVLIANAVRQIQEEMTQDGTWRTVAPQAAERAPLDRLVSTEILCRAAWGQEGAHPAPGLGDGHTQGPVSDLCPVTSAQAPRHLQSSAWEMDGPRENRGSFHKSLDQIFETLETKNPSCMEELFSDVDSPYYDLDTVLTGMMGGARPGPCEGLEGLAPATPGPSSSCKSDLGELDHVVEILVET | 28
CDCA4 V43: CDCA4, V43 to alanine (protein, UniProt Q9BXL8 1-241, looked up, variant V43A) Cell division …: MFARGLKRKCVGHEEDVEGALAGLKTVSSYSLQRQSLLDMSLAKLQLCHMLVEPNLCRSVLIANTVRQIQEEMTQDGTWRTVAPQAAERAPLDRLVSTEILCRAAWGQEGAHPAPGLGDGHTQGPVSDLCPVTSAQAPRHLQSSAWEMDGPRENRGSFHKSLDQIFETLETKNPSCMEELFSDVDSPYYDLDTVLTGMMGGARPGPCEGLEGLAPATPGPSSSCKSDLGELDHVVEILVET | 81
CDCA4 L42: CDCA4, L42 to alanine (protein, UniProt Q9BXL8 1-241, looked up, variant L42A) Cell division …: MFARGLKRKCVGHEEDVEGALAGLKTVSSYSLQRQSLLDMSAVKLQLCHMLVEPNLCRSVLIANTVRQIQEEMTQDGTWRTVAPQAAERAPLDRLVSTEILCRAAWGQEGAHPAPGLGDGHTQGPVSDLCPVTSAQAPRHLQSSAWEMDGPRENRGSFHKSLDQIFETLETKNPSCMEELFSDVDSPYYDLDTVLTGMMGGARPGPCEGLEGLAPATPGPSSSCKSDLGELDHVVEILVET | 129
CDCA4 V66: CDCA4, V66 to alanine (protein, UniProt Q9BXL8 1-241, looked up, variant V66A) Cell division …: MFARGLKRKCVGHEEDVEGALAGLKTVSSYSLQRQSLLDMSLVKLQLCHMLVEPNLCRSVLIANTARQIQEEMTQDGTWRTVAPQAAERAPLDRLVSTEILCRAAWGQEGAHPAPGLGDGHTQGPVSDLCPVTSAQAPRHLQSSAWEMDGPRENRGSFHKSLDQIFETLETKNPSCMEELFSDVDSPYYDLDTVLTGMMGGARPGPCEGLEGLAPATPGPSSSCKSDLGELDHVVEILVET | 38
